The values below come from publication PMC12219854 (Nature Communications, 2025).

The target in assay [1] is GST-53BP1^TTD (amino acids 1235-1709) (UniProt Q12888 1235-1709). In words: pull-down.
The target of assay [2] is GST-Bahcc1^TTD (murine Bahcc1 amino acids 1904-2044) (mouse, UniProt Q3UHR0 1904-2044). Kind of assay: pull-down.
Chain of GST-Bahcc1^TTD (murine Bahcc1 amino acids 1904-2044) (Q3UHR0 1904-2044): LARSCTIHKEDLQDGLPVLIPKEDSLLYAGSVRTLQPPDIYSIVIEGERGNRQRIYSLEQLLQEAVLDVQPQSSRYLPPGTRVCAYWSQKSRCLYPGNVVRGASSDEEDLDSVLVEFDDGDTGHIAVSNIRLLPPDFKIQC

Chain of GST-53BP1^TTD (amino acids 1235-1709) (Q12888 1235-1709): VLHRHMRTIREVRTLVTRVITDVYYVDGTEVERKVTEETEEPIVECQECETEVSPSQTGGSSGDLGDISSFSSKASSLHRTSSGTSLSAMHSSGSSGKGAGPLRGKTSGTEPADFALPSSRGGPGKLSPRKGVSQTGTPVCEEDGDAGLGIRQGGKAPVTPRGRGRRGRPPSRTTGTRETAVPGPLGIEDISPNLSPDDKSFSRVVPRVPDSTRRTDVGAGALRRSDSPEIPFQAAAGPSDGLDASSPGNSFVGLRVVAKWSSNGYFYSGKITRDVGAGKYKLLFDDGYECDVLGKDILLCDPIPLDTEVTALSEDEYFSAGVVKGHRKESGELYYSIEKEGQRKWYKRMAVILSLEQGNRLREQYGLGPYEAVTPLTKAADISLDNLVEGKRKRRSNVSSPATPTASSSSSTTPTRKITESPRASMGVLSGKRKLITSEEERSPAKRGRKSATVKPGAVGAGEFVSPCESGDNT

For GKGGAKRHRKVLRDNIQ (peptide, UniProt P62805 12-28, looked up, dimethyl-lysine at K20; biotin (position not given)) [biotinylated H4 peptide, amino acids 11 to 27, H4K20me2], the binding result in assay [1] is “binds”.

As for GKGGAKRHRKVLRDNIQ (peptide, UniProt P62805 12-28, looked up, monomethyl-lysine at K20; biotin (position not given)) [biotinylated H4 peptide, amino acids 11 to 27, H4K20me1], the binding result in assay [2] was “binds”.
